The values that follow come from publication PMC10527347 (Journal of molecular biology, 2023).

As a reminder, the Kd is the equilibrium constant for the complex coming apart. Higher therefore signals weaker binding.

Positions count from the first letter of the chain named. Numbers in names are those of the source. Where two headings read alike, the source gives them in different places.

In data set [1] the target is T1, biotin-labeled Ydj1 (S. cerevisiae, UniProt P25491 1-409, biotin label (site not stated)).
T1 sequence (looked up): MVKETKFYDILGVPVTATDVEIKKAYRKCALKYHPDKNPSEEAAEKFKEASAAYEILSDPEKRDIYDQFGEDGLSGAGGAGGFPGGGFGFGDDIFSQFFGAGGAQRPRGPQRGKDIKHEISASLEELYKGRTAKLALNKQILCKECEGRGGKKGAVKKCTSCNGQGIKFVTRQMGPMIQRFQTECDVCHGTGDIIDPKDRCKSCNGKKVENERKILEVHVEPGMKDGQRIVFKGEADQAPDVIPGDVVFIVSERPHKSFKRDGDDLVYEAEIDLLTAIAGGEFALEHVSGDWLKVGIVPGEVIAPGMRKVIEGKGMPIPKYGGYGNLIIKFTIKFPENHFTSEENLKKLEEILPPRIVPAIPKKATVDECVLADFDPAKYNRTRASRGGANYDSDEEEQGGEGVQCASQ
In words: pull-down.

Data set [2] concerns the target T2, Hsp90Ec N347C (E. coli, UniProt P0A6Z3 1-624, N347C). As to the kind of experiment: cross-linking.
Data set [3] deals with Hsp90Ec N350C (E. coli, UniProt P0A6Z3 1-624, N350C). As to the kind of experiment: cross-linking.
The target of data set [4] is Hsp90Ec N347C/D80N (E. coli, UniProt P0A6Z3 1-624, N347C | D80N). As to the kind of experiment: cross-linking.
Data set [5] concerns the molecule itself. As to the kind of experiment: cross-linking.
For data set [6], the target named is T2, Hsp90Ec N347C. In words: cross-linking. This is another data set of the same source.
Data set [7] has as its target T3, Hsp90Ec K199C (E. coli, UniProt P0A6Z3 1-624, K199C). As to the kind of experiment: cross-linking.
For data set [8], the target named is Hsp90Ec K354C (E. coli, UniProt P0A6Z3 1-624, K354C). In words: cross-linking.
Data set [9] has as its target Hsp90Ec K99C (E. coli, UniProt P0A6Z3 1-624, K99C). As to the kind of experiment: cross-linking.
Data set [10] deals with Hsp90Ec K103C (E. coli, UniProt P0A6Z3 1-624, K103C). In words: cross-linking.
Data set [11] concerns the target T3, Hsp90Ec K199C. In words: cross-linking. This is another data set of the same source.
Data set [12] deals with Hsp90Ec K71C (E. coli, UniProt P0A6Z3 1-624, K71C). As to the kind of experiment: cross-linking.
Data set [13] concerns the target Hsp90Ec K45C (E. coli, UniProt P0A6Z3 1-624, K45C). As to the kind of experiment: cross-linking.
In data set [14] the target is Hsp90Ec K238C (E. coli, UniProt P0A6Z3 1-624, K238C). In words: cross-linking.
For data set [15], the target named is T4, Hsp90Ec wild-type (E. coli, UniProt P0A6Z3 1-624). In words: cross-linking.
Data set [16] addresses T4, Hsp90Ec wild-type. As to the kind of experiment: BLI. For orientation: BLI is a label-free optical method that tracks binding on a fibre tip over time.

B1: Hsp82 wild-type (natural protein)
chain: not shown
As for B1, the “fold change in interaction, with L2 against without L2” value in [1] was roughly 2 fold.

B2: CbpA A44C (natural protein, E. coli, UniProt P36659 1-306, looked up)
chain: MELKDYYAIMGVKPTDDLKTIKTAYRRLARKYHPDVSKEPDAECRFKEVAEAWEVLSDEQRRAEYDQMWQHRNDPQFNRQFHHGDGQSFNAEDFDDIFSSIFGQHARQSRQRPATRGHDIEIEVAVFLEETLTEHKRTISYNLPVYNAFGMIEQEIPKTLNVKIPAGVGNGQRIRLKGQGTPGENGGPNGDLWLVIHIAPHPLFDIVGQDLEIVVPVSPWEAALGAKVTVPTLKESILLTIPPGSQAGQRLRVKGKGLVSKKQTGDLYAVLKIVMPPKPDENTAALWQQLADAQSSFDPRKDWGKA
Regarding B2, the binding result in data set [2] is given as “binds”.

B3: CbpA E51C (natural protein, E. coli, UniProt P36659 1-306, looked up)
chain: B2 chain with C44A, E51C
For B3, the binding result in data set [3], in data set [4], in [5], in [6] and in data set [7] was “binds” in each case.

B4: CbpA K22C (natural protein, E. coli, UniProt P36659 1-306, looked up)
chain: B2 chain with K22C, C44A
Consider B4, for which the binding result in [2], in data set [8], in data set [9], in data set [10], in [11] and in [12] was “binds” each time. Besides, the binding result in data set [13] and in data set [14] was “binds” each time.

B5: CbpA wild-type (natural protein, E. coli, UniProt P36659 1-306, looked up)
chain: B2 chain with C44A
As for B5, the binding result in data set [15] and in [7] was “binds” each time.

B6: CbpA S57C (natural protein, E. coli, UniProt P36659 1-306, looked up)
chain: B2 chain with C44A, S57C
For the molecule B6, the binding result in data set [2] was “binds”.

B7: biotin-labeled DnaJ (natural protein, E. coli, UniProt P08622 1-376, looked up)
chain: MAKQDYYEILGVSKTAEEREIRKAYKRLAMKYHPDRNQGDKEAEAKFKEIKEAYEVLTDSQKRAAYDQYGHAAFEQGGMGGGGFGGGADFSDIFGDVFGDIFGGGRGRQRAARGADLRYNMELTLEEAVRGVTKEIRIPTLEECDVCHGSGAKPGTQPQTCPTCHGSGQVQMRQGFFAVQQTCPHCQGRGTLIKDPCNKCHGHGRVERSKTLSVKIPAGVDTGDRIRLAGEGEAGEHGAPAGDLYVQVQVKQHPIFEREGNNLYCEVPINFAMAALGGEIEVPTLDGRVKLKVPGETQTGKLFRMRGKGVKSVRGGAQGDLLCRVVVETPVGLNERQKQLLQELQESFGGPTGEHNSPRSKSFFDGVKKFFDDLTR
modifications: biotin label (site not stated)
B7: in data set [16], the Kd was determined as 3.6 ± 0.3 µM.
